This note sets out measurements from patent publication US20170088632A1 (OMEROS, published 2017).

By Kd is commonly meant the equilibrium constant for the complex coming apart. The term EC50 (read off the curve) denotes the concentration at which the effect is half-maximal.

Experiment [1] deals with T1, human MASP-2A (catalytically inactive human MASP-2, Ser618 to Ala618) (human, UniProt O00187 16-686).
T1 construct: the ELISA and Biacore methods say only 'MASP-2A', so a tag may have been present; also called huMASP2A; huMASP-2A
The experiment can be described thus: Biacore, microscale-expressed scFv on MASP-2A coated CM5 chip. The procedure:
Therefore, three different scFv libraries were constructed by PCR where the amino acid positions 1, 2 and 3 were randomized to the set of all possible 20 amino acids using degenerate codons. After cloning the libraries, microscale expression was performed and scFv binding was monitored on a MASP-2A coated CM5 chip (not shown).

The target in experiment [2] is T2, human MASP-2 (human, UniProt O00187 16-686). The experiment can be described thus: cell-based or functional assay.
For experiment [3], the target named is T2, human MASP-2. The experiment can be described thus: cell-based or functional assay. This is another data set of the same source.
Experiment [4] deals with T3, African Green monkey MASP-2 (in African Green monkey serum) (African Green monkey). The experiment can be described thus: cell-based or functional assay.
The target of experiment [5] is T1, human MASP-2A (catalytically inactive …). The experiment can be described thus: SPR (Biacore), MASP-2A amine coupled to CM5 chip, scFv monomer in solution. A general note: SPR reads the build-up and loss of mass on a sensor chip optically.
Experiment [6] has the same target. The experiment can be described thus: SPR (Biacore), scFv captured by anti-cMyc antibody, MASP-2A in solution; MASP-2 in solution, scFv captured (not immobilized MASP-2).
Experiment [7] addresses T2, human MASP-2. The experiment can be described thus: cell-based or functional assay. This is another data set of the same source.
In experiment [8] the target is T3, African Green monkey MASP-2 (in African …). As to the kind of experiment: cell-based or functional assay. This is another data set of the same source.
In experiment [9] the target is T2, human MASP-2. The experiment can be described thus: cell-based or functional assay. The source holds these as a separate data set.
Experiment [10] has as its target T2, human MASP-2. As to the kind of experiment: cell-based or functional assay. The source holds these as a separate data set.
Experiment [11] concerns the target T2, human MASP-2. The experiment can be described thus: cell-based or functional assay. The source holds these as a separate data set.
For experiment [12], the target named is rat MASP-2 (in rat serum) (rat, UniProt Q9JJS8 20-685). The experiment can be described thus: cell-based or functional assay.
Experiment [13] deals with T3, African Green monkey MASP-2 (in African …). As to the kind of experiment: cell-based or functional assay. This is another data set of the same source.
Experiment [14] addresses T2, human MASP-2. As to the kind of experiment: cell-based or functional assay. This is another data set of the same source.
For experiment [15], the target named is T1, human MASP-2A (catalytically inactive …). The experiment can be described thus: ELISA on adsorbed human MASP-2A, purified scFv monomer. (In general: ELISA stands for enzyme-linked immunosorbent assay.)
The target is the same in experiment [16]. The experiment can be described thus: titration ELISA on coated human MASP-2A ('Binding affinity'), scFv.
For experiment [17] the target is unchanged. As to the kind of experiment: SPR (Biacore), scFv captured by anti-cMyc antibody, MASP-2A in solution.
Experiment [18] shares this target. As to the kind of experiment: ELISA, purified scFv titrated on physically adsorbed human MASP-2A.

rat MASP-2 (in rat serum), sequence (Q9JJS8 other isoform, or with tags, fused parts or gaps limits assumed): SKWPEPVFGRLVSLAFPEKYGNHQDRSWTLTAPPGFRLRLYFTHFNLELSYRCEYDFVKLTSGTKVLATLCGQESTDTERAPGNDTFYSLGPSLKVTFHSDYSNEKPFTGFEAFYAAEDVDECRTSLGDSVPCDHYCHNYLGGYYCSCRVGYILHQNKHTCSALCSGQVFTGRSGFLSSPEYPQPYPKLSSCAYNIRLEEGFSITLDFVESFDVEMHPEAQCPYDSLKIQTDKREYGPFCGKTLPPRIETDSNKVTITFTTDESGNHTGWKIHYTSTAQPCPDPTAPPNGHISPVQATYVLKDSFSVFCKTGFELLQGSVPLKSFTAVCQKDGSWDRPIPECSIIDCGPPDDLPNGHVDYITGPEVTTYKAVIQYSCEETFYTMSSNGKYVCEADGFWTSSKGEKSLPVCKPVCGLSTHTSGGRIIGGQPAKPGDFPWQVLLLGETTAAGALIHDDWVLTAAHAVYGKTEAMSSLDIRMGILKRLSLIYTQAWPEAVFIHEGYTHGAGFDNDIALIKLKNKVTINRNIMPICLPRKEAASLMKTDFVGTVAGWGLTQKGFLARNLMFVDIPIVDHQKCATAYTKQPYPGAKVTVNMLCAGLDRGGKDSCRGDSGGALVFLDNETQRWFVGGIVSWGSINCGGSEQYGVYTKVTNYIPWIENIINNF
T1 sequence (O00187 16-686 S633A): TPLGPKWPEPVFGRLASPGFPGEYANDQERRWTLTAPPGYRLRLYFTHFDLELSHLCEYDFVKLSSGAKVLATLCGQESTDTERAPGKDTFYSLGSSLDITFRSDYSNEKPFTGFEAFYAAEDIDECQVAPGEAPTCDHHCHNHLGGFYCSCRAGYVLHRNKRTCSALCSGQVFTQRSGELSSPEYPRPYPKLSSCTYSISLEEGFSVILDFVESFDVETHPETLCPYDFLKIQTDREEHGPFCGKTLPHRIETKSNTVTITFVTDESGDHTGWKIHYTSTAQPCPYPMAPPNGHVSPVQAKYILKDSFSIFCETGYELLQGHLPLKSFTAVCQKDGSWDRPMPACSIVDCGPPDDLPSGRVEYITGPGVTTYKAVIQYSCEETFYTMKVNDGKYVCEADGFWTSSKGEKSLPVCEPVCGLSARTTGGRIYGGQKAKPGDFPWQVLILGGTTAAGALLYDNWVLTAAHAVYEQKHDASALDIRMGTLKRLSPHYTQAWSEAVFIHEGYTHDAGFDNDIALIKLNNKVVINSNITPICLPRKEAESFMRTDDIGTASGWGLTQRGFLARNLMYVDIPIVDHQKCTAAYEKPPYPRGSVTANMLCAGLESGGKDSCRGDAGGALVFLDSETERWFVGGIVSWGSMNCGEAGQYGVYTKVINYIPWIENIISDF
T2 sequence (O00187 16-686): as the sequence (O00187 16-686 S633A) above, with A618S counted along it

B1: scFv mutagenesis clone #90 of 17D20 (scFv)
scFv: QVTLKESGPVLVKPTETLTLTCTVSGFSLSRGKMGVSWIRQPPGKALEWLAHIFSSDEKSYRTSLKSRLTISKDTSKNQVVLTMTNMDPVDTATYYCARIRPGGIDYWGQGTLVTVSSKLSGSASAPKLEEGEFSEARVQPVLTQPPSVSVSPGQTASITCSGDKLGDKFAYWYQQKPGHSPVLVIYQDNKRPSGIPGRFSGSNSGNTATLTISGTQAMDEADYYCQAWDSSTAVFGTGTKVTVLAAAGSEQKLISEEDLNSHHHHHH
Turning to B1, the binding result in [1] is listed as “binds”.

B2: scFv mother clone 4D9 (scFv)
scFv: QITLKESGPVLVKPTETLTLTCTVSGFSLSNARMGVSWIRQPPGKALEWLAHIFSNDEKSYSTSLKSRLTISKDTSKSQVVLTMTNMDPVDTATYYCARMRYSSSLYGMDVWGQGTRVTVSSKLSGSASAPKLEEGEFSEARVSYELIQPPSVSVSPGQTASITCSGDKLGDKYVSWYQQKPGRSPVLVIYRDTKRPSGIPERFSGSNSGNTATLTISGTQAMDEADYYCQAWDSSTVVFGGGTKLTVLAAAGSEQKLISEEDLNSHHHHHH
notes: also called 4D9 (18L16)
Consider B2, for which the “Inhibitory activity in Human Serum IC50 (C3b deposition, 0.5% human serum)” value in experiment [2] turned out to be 22 nM. For the same molecule, in experiment [3], the “Functional IC50, C3b deposition, human serum Exp #1” value was found to be 22 nM; the “Functional IC50, C3b deposition, human serum Exp #2” value was found to be 46.3 nM; the “Functional IC50, C3b deposition, human serum Exp #3” value is 62.2 nM; the “Functional IC50, C3b deposition, human serum Exp #4” value came to 38.4 nM. In addition, in experiment [4], the “Functional IC50, C3b deposition, non-human primate serum Exp #1” value turned out to be 115 nM and the “Functional IC50, C3b deposition, non-human primate serum Exp #2” value was determined as 203 nM. The molecule further came in with a Kd in [5] of 8.4 nM. Binding in [6] was characterised by a dissociation constant (Kd) of 0.02 nM.

B3: scFv mother clone 17N16 (scFv)
scFv: QVQLQQSGPGLVKPSQTLSLTCAISGDSVSSTSAAWNWIRQSPSRGLEWLGRTYYRSKWYNDYAVSVKSRITINPDTSKNQFSLQLNSVTPEDTAVYYCARDPFGVPFDIWGQGTMVTVSSKLSGSASAPKLEEGEFSEARVSYVLTQPPSVSVAPGQTARITCGGNNIGSKNVHWYQQKPGQAPVLVVYDDSDRPSGIPERFSGSNSGNTATLTVSRVEAGDEADYYCQVWDTTTDHVVFGGGTKLTVLAAAGSEQKLISEEDLNSHHHHHH
notes: also called 17N16mc; 17N16m
As for B3, the “Inhibitory activity in Human Serum IC50 (C3b deposition, 0.5% human serum)” value in experiment [2] was found to be 15.4 nM. Also, in [3], the “Functional IC50, C3b deposition, human serum Exp #1” value was 15.4 nM; the “Functional IC50, C3b deposition, human serum Exp #2” value came out at 65.4 nM; the “Functional IC50, C3b deposition, human serum Exp #3” value was 24.8 nM; the “Functional IC50, C3b deposition, human serum Exp #4” value was determined as 19.2 nM. Also, in experiment [4], the “Functional IC50, C3b deposition, non-human primate serum Exp #1” value is 95.6 nM and the “Functional IC50, C3b deposition, non-human primate serum Exp #2” value stood at 58.8 nM. Besides, in experiment [7], the “C3 Assay IC50 in dilute serum (1%), human serum Exp #1” value stood at 19 nM; the “C3 Assay IC50 in dilute serum (1%), human serum Exp #2” value was determined as 24 nM; the “C3 Assay IC50 in dilute serum (1%), human serum Exp #3” value was 65 nM; the “C3 Assay IC50 in dilute serum (1%), human serum mean” value was 36 nM. In addition, in experiment [8], the “C3 Assay IC50, non-human primate serum Exp #1” value turned out to be 95 nM; the “C3 Assay IC50, non-human primate serum Exp #2” value was found to be 58 nM; the “C3 Assay IC50, non-human primate serum mean” value came to 76 nM. In addition, in experiment [9], the “C3 convertase assay using 1% human serum, IC50 (first experiment)” value came to 36.2 nM and the “C3 convertase assay using 1% human serum, IC50 (second experiment)” value amounted to 77.6 nM. The “Complement assay IC50” value in experiment [10] is 8.8 nM. In experiment [11], the “IC50, C3c release, 1% human serum (first experiment)” value turned out to be 65.3 nM and the “IC50, C3c release, 1% human serum (second experiment)” value amounted to 73.5 nM. In addition, in experiment [12], the “IC50, C3c release, 0.375% rat serum (second experiment)” value turned out to be 196 nM. In [13], the “IC50, C3c release, 0.2% African Green serum (first experiment)” value worked out at 92.9 nM and the “IC50, C3c release, 0.2% African Green serum (second experiment)” value is 81.4 nM. In addition, the “1% human serum C3 assay IC50” value in experiment [14] stood at 68 nM. In [15], this molecule showed a Kd of 18.9 nM. Besides, the Kd in experiment [16] amounted to 18.9 nM. In experiment [17], this molecule came in with a Kd of 1.68 nM. For the same molecule, the “EC50 (read off the curve)” value in experiment [18] was around 0.9 nM. Binding in experiment [5] was characterised by a dissociation constant (Kd) of 3560 nM.

B4: scFv daughter clone 17N16m_d17N9 (scFv)
scFv: QVQLQQSGPGLVKPSQTLSLTCAISGDSVSSTSAAWNWIRQSPSRGLEWLGRTYYRSKWYNDYAVSVKSRITINPDTSKNQFSLQLNSVTPEDTAVYYCARDPFGVPFDIWGQGTMVTVSSKLSGSASAPKLEEGEFSEARVSYELIQPPSVSVAPGQTATITCAGDNLGKKRVHWYQQRPGQAPVLVIYDDSDRPSGIPDRFSASNSGNTATLTITRGEAGDEADYYCQVWDIATDHVVFGGGTKLTVLAAAGSEQKLISE
notes: also called 17N9 daughter clone
On to B4, for which the “Complement assay IC50” value in experiment [10] is 10.3 nM. Also, in experiment [11], the “IC50, C3c release, 1% human serum (first experiment)” value was determined as 39.9 nM and the “IC50, C3c release, 1% human serum (second experiment)” value was determined as 57.7 nM. Besides, in experiment [12], the “IC50, C3c release, 0.375% rat serum (first experiment)” value is 79.3 nM and the “IC50, C3c release, 0.375% rat serum (second experiment)” value was determined as 141 nM. Also, in experiment [13], the “IC50, C3c release, 0.2% African Green serum (first experiment)” value was found to be 63.8 nM and the “IC50, C3c release, 0.2% African Green serum (second experiment)” value is 81.1 nM. For the same molecule, in experiment [14], the “1% human serum C3 assay IC50” value was determined as 48 nM, the “90% human serum C3 assay IC50” value amounted to 15 nM and the “90% human serum C4 assay IC50” value came out at 230 nM. This molecule also gave a Kd in [15] of 48.6 nM. Also, in experiment [18], the “EC50 (read off the curve)” value was around 0.8 nM.
